Experimental data reported in PMC6542021.
Values belong to the molecule of their own block, whether it stands above or below them.

Key:
[1] = target: FcγRIII CD16 on NK cells (human (endogenous in NK cells of healthy donors)) (UniProt P08637); experiment: FACS; NK cells within PBMC
[2] = target: FcγRIII CD16 on NK cells (human (endogenous in NK cells of healthy donors)) (UniProt P08637); experiment: flow cytometry on cells; PBMC of healthy donors incubated with the indicated concentrations of NKG2D-Fc-ADCC, followed by an anti-human PE conjugate; EC50 from MFI by a sigmoidal dose-response curve (GraphPad Prism); one representative experiment of three
[3] = target: CD3 (Homo sapiens); experiment: FACS; T cells within PBMC; conditions: other; Only the NKG2D limits and the CH2 changes are printed. UCHT1 VH/VL are taken from the 1XIW scFv complex (entity order VL=3, VH=4 from memory). Human CH1/hinge and human C-kappa are assumed (KappaSelect purification, anti-human PE detection). CH2 end (EU 340) is by convention. G236 (P01857 119) is deleted; EU number = P01857 number + 117. Junction residues are not printed. Fab interchain disulfide; modification not given
Chain of CD3 (Homo sapiens) (P07766 23-207, chain 1 of 3): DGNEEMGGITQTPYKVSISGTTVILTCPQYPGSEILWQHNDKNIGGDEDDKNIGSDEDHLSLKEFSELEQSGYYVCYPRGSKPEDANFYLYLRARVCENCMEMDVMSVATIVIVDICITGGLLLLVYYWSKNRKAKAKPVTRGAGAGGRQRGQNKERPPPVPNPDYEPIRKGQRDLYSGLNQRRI
Chain of CD3 (Homo sapiens) (P04234 22-171, chain 2 of 3, further chain): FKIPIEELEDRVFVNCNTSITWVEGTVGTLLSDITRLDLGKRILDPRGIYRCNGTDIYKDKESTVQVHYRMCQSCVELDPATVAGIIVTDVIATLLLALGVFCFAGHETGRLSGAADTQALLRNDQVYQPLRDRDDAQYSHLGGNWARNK
Chain of CD3 (Homo sapiens) (P09693 23-182, chain 3 of 3, further chain): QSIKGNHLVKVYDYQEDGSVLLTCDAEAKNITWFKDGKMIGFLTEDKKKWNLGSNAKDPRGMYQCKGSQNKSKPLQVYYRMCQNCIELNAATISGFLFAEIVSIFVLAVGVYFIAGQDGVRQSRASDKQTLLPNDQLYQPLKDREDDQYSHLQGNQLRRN

Chain of UniProt P08637 (P08637 17-254): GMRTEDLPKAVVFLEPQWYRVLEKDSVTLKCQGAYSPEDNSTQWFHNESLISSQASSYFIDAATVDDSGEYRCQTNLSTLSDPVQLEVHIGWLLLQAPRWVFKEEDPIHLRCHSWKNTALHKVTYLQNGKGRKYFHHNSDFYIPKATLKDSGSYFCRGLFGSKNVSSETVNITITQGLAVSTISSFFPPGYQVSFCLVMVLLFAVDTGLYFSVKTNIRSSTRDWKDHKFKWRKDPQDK

EC50 [1]: 2.2 nM
Molecule: NKG2D-CD16 bispecific fusion protein (from UniProt P26718 78-216)

EC50 [2]: 20 nM
Molecule: NKG2D-Fc-ADCC fusion protein (from UniProt P26718 73-216) (Fc fusion)

EC50 [3]: 2.1 nM
B1: NKG2D-CD3 bispecific fusion protein, P26718 78-216 (protein)
chain 1: EVQLQQSGPELVKPGASMKISCKASGYSFTGYTMNWVKQSHGKNLEWMGLINPYKGVSTYNQKFKDKATLTVDKSSSTAYMELLSLTSEDSAVYYCARSGYYGDSDWYFDVWGQGTTLTVFSASTKGPSVFPLAPSSKSTSGGTAALGCLVKDYFPEPVTVSWNSGALTSGVHTFPAVLQSSGLYSLSSVVTVPSSSLGTQTYICNVNHKPSNTKVDKKVEPKSCDKTHTSPPSPAPPVAGPSVFLFPPKPKDTLMISRTPEVTCVVVGVSHEDPEVKFNWYVDGVEVHNAKTKPREEQYQSTYRVVSVLTVLHQDWLNGKEYKCKVSNKQLPSPIEKTISKAKFLNSLFNQEVQIPLTESYCGPCPKNWICYKNNCYQFFDESKNWYESQASCMSQNASLLKVYSKEDQDLLKLVKSYHWMGLVHIPTNGSWQWEDGSILSPNLLTIIEMQKGDCALYASSFKGYIENCSTPNTYICMQRTV
chain 2: MDIQMTQTTSSLSASLGDRVTISCRASQDIRNYLNWYQQKPDGTVKLLIYYTSRLHSGVPSKFSGSGSGTDYSLTISNLEQEDIATYFCQQGNTLPWTFAGGTKLEIKRTVAAPSVFIFPPSDEQLKSGTASVVCLLNNFYPREAKVQWKVDNALQSGNSQESVTEQDSKDSTYSLSSTLTLSKADYEKHKVYACEVTHQGLSSPVTKSFNRGEC
